The Human Domainome abundance scans (Beltran et al. 2025)
± gives the uncertainty stated by the source.

B1: Homeobox protein cut-like 1, residues 548 to 629; numbered along this chain, P39880 (parent)
chain: GEEMDTAEIARQVKEQLIKHNIGQRIFGHYVLGLSQGSVSEILARPKPWNKLTVRGKEPFHKMKQFLSDEQNILALRSIQGR

Variants of: B1
Assay: abundance fitness (aPCA) (normalised: wild type 0, dead -1); higher = more abundant; growth selection in yeast, the domain comes from the species named
Details: Homo sapiens

Variant | abundance fitness
GEEMDTAEIARQVKEQLIKHNIGQRIFGHYVLGLSQGSVSEILARPKPWNKLTVRGKEPFHKMKQFLSDEQNILATRSIQGR [L76T] | -0.752 ± 0.086
GEEMDTAEIARQVKEQLIKHNIGQRIFGHYVLGLSQGSVSEILARPKPWNKLTVRGKEPFHKMKQFLSDEQNILACRSIQGR [L76C] | -0.484 ± 0.061
GEEMDTAEIARQVKEQLIKHNIGQRIFGHYVLGLSQGSVSEILARPKPWNKLTVRGKEPFHKMKQFLSDEQNILAERSIQGR [L76E] | -0.758 ± 0.063
GEEMDTAEIARQVKEQLIKHNIGQRIFGHYVLGLSQGSVSEILARPKPWNKLTVRGKEPFHKMKQFLSDEQNILAPRSIQGR [L76P] | -0.586 ± 0.12
GEEMDTAEIARQVKEQLIKHNIGQRIFGHYVLGLSQGSVSEILARPKPWNKLTVRGKEPFHKMKQFLSDEQNILASRSIQGR [L76S] | -0.697 ± 0.056
GEEMDTAEIARQVKEQLIKHNIGQRIFGHYVLGLSQGSVSEILARPKPWNKLTVRGKEPFHKMKQFLSDEQNILAIRSIQGR [L76I] | -0.291 ± 0.066
GEEMDTAEIARQVKEQLIKHNIGQRIFGHYVLGLSQGSVSEILARPKPWNKLTVRGKEPFHKMKQFLSDEQNILADRSIQGR [L76D] | -0.716 ± 0.092
GEEMDTAEIARQVKEQLIKHNIGQRIFGHYVLGLSQGSVSEILARPKPWNKLTVRGKEPFHKMKQFLSDEQNILAMRSIQGR [L76M] | -0.461 ± 0.054
GEEMDTAEIARQVKEQLIKHNIGQRIFGHYVLGLSQGSVSEILARPKPWNKLTVRGKEPFHKMKQFLSDEQNILAGRSIQGR [L76G] | -0.806 ± 0.04
GEEMDTAEIARQVKEQLIKHNIGQRIFGHYVLGLSQGSVSEILARPKPWNKLTVRGKEPFHKMKQFLSDEQNILANRSIQGR [L76N] | -0.856 ± 0.16
GEEMDTAEIARQVKEQLIKHNIGQRIFGHYVLGLSQGSVSEILARPKPWNKLTVRGKEPFHKMKQFLSDEQNILAARSIQGR [L76A] | -0.638 ± 0.052
GEEMDTAEIARQVKEQLIKHNIGQRIFGHYVLGLSQGSVSEILARPKPWNKLTVRGKEPFHKMKQFLSDEQNILAVRSIQGR [L76V] | -0.357 ± 0.035
GEEMDTAEIARQVKEQLIKHNIGQRIFGHYVLGLSQGSVSEILARPKPWNKLTVRGKEPFHKMKQFLSDEQNILAQRSIQGR [L76Q] | -0.6 ± 0.086
GEEMDTAEIARQVKEQLIKHNIGQRIFGHYVLGLSQGSVSEILARPKPWNKLTVRGKEPFHKMKQFLSDEQNILARRSIQGR [L76R] | -0.945 ± 0.057
GEEMDTAEIARQVKEQLIKHNIGQRIFGHYVLGLSQGSVSEILARPKPWNKLTVRGKEPFHKMKQFLSDEQNILAKRSIQGR [L76K] | -0.861 ± 0.12
GEEMDTAEIARQVKEQLIKHNIGQRIFGHYVLGLSQGSVSEILARPKPWNKLTVRGKEPFHKMKQFLSDEQNILMLRSIQGR [A75M] | -0.039 ± 0.037
GEEMDTAEIARQVKEQLIKHNIGQRIFGHYVLGLSQGSVSEILARPKPWNKLTVRGKEPFHKMKQFLSDEQNILQLRSIQGR [A75Q] | 0.038 ± 0.047
GEEMDTAEIARQVKEQLIKHNIGQRIFGHYVLGLSQGSVSEILARPKPWNKLTVRGKEPFHKMKQFLSDEQNILDLRSIQGR [A75D] | 0.109 ± 0.049
GEEMDTAEIARQVKEQLIKHNIGQRIFGHYVLGLSQGSVSEILARPKPWNKLTVRGKEPFHKMKQFLSDEQNILCLRSIQGR [A75C] | -0.11 ± 0.049
GEEMDTAEIARQVKEQLIKHNIGQRIFGHYVLGLSQGSVSEILARPKPWNKLTVRGKEPFHKMKQFLSDEQNILKLRSIQGR [A75K] | 0.095 ± 0.04
GEEMDTAEIARQVKEQLIKHNIGQRIFGHYVLGLSQGSVSEILARPKPWNKLTVRGKEPFHKMKQFLSDEQNILSLRSIQGR [A75S] | 0.041 ± 0.031
GEEMDTAEIARQVKEQLIKHNIGQRIFGHYVLGLSQGSVSEILARPKPWNKLTVRGKEPFHKMKQFLSDEQNILELRSIQGR [A75E] | 0.092 ± 0.034
GEEMDTAEIARQVKEQLIKHNIGQRIFGHYVLGLSQGSVSEILARPKPWNKLTVRGKEPFHKMKQFLSDEQNILTLRSIQGR [A75T] | 0.012 ± 0.037

Variant | abundance fitness
GEEMDTAEIARQVKEQLIKHNIGQRIFGHYVLGLSQGSVSEILARPKPWNKLTVRGKEPFHKMKQFLSDEQNILYLRSIQGR [A75Y] | -0.027 ± 0.05
GEEMDTAEIARQVKEQLIKHNIGQRIFGHYVLGLSQGSVSEILARPKPWNKLTVRGKEPFHKMKQFLSDEQNILFLRSIQGR [A75F] | -0.066 ± 0.061
GEEMDTAEIARQVKEQLIKHNIGQRIFGHYVLGLSQGSVSEILARPKPWNKLTVRGKEPFHKMKQFLSDEQNILRLRSIQGR [A75R] | 0.05 ± 0.026
GEEMDTAEIARQVKEQLIKHNIGQRIFGHYVLGLSQGSVSEILARPKPWNKLTVRGKEPFHKMKQFLSDEQNILNLRSIQGR [A75N] | 0.187 ± 0.061
GEEMDTAEIARQVKEQLIKHNIGQRIFGHYVLGLSQGSVSEILARPKPWNKLTVRGKEPFHKMKQFLSDEQNILVLRSIQGR [A75V] | -0.127 ± 0.033
GEEMDTAEIARQVKEQLIKHNIGQRIFGHYVLGLSQGSVSEILARPKPWNKLTVRGKEPFHKMKQFLSDEQNILPLRSIQGR [A75P] | -0.314 ± 0.047
GEEMDTAEIARQVKEQLIKHNIGQRIFGHYVLGLSQGSVSEILARPKPWNKLTVRGKEPFHKMKQFLSDEQNILWLRSIQGR [A75W] | 0.009 ± 0.033
GEEMDTAEIARQVKEQLIKHNIGQRIFGHYVLGLSQGSVSEILARPKPWNKLTVRGKEPFHKMKQFLSDEQNILLLRSIQGR [A75L] | -0.061 ± 0.032
GEEMDTAEIARQVKEQLIKHNIGQRIFGHYVLGLSQGSVSEILARPKPWNKLTVRGKEPFHKMKQFLSDEQNILILRSIQGR [A75I] | -0.146 ± 0.059
GEEMDTAEIARQVKEQLIKHNIGQRIFGHYVLGLSQGSVSEILARPKPWNKLTVRGKEPFHKMKQFLSDEQNVLALRSIQGR [I73V] | 0.038 ± 0.029
GEEMDTAEIARQVKEQLIKHNIGQRIFGHYVLGLSQGSVSEILARPKPWNKLTVRGKEPFHKMKQFLSDEQNSLALRSIQGR [I73S] | 0.005 ± 0.036
GEEMDTAEIARQVKEQLIKHNIGQRIFGHYVLGLSQGSVSEILARPKPWNKLTVRGKEPFHKMKQFLSDEQNYLALRSIQGR [I73Y] | -0.627 ± 0.13
GEEMDTAEIARQVKEQLIKHNIGQRIFGHYVLGLSQGSVSEILARPKPWNKLTVRGKEPFHKMKQFLSDEQNTLALRSIQGR [I73T] | -0.163 ± 0.039
GEEMDTAEIARQVKEQLIKHNIGQRIFGHYVLGLSQGSVSEILARPKPWNKLTVRGKEPFHKMKQFLSDEQNQLALRSIQGR [I73Q] | -0.336 ± 0.048
GEEMDTAEIARQVKEQLIKHNIGQRIFGHYVLGLSQGSVSEILARPKPWNKLTVRGKEPFHKMKQFLSDEQNWLALRSIQGR [I73W] | 0.05 ± 0.032
GEEMDTAEIARQVKEQLIKHNIGQRIFGHYVLGLSQGSVSEILARPKPWNKLTVRGKEPFHKMKQFLSDEQNPLALRSIQGR [I73P] | -0.303 ± 0.048
GEEMDTAEIARQVKEQLIKHNIGQRIFGHYVLGLSQGSVSEILARPKPWNKLTVRGKEPFHKMKQFLSDEQNRLALRSIQGR [I73R] | -0.56 ± 0.034
GEEMDTAEIARQVKEQLIKHNIGQRIFGHYVLGLSQGSVSEILARPKPWNKLTVRGKEPFHKMKQFLSDEQNNLALRSIQGR [I73N] | -0.51 ± 0.075
GEEMDTAEIARQVKEQLIKHNIGQRIFGHYVLGLSQGSVSEILARPKPWNKLTVRGKEPFHKMKQFLSDEQNILALHSIQGR [R77H] | -0.096 ± 0.088
GEEMDTAEIARQVKEQLIKHNIGQRIFGHYVLGLSQGSVSEILARPKPWNKLTVRGKEPFHKMKQFLSDEQNILALGSIQGR [R77G] | -0.086 ± 0.026
GEEMDTAEIARQVKEQLIKHNIGQRIFGHYVLGLSQGSVSEILARPKPWNKLTVRGKEPFHKMKQFLSDEQNILALDSIQGR [R77D] | -0.292 ± 0.057
GEEMDTAEIARQVKEQLIKHNIGQRIFGHYVLGLSQGSVSEILARPKPWNKLTVRGKEPFHKMKQFLSDEQNILALASIQGR [R77A] | 0.049 ± 0.03
GEEMDTAEIARQVKEQLIKHNIGQRIFGHYVLGLSQGSVSEILARPKPWNKLTVRGKEPFHKMKQFLSDEQNILALESIQGR [R77E] | -0.005 ± 0.035

Variant | abundance fitness
GEEMDTAEIARQVKEQLIKHNIGQRIFGHYVLGLSQGSVSEILARPKPWNKLTVRGKEPFHKMKQFLSDEQNILALFSIQGR [R77F] | -0.511 ± 0.07
GEEMDTAEIARQVKEQLIKHNIGQRIFGHYVLGLSQGSVSEILARPKPWNKLTVRGKEPFHKMKQFLSDEQNILALCSIQGR [R77C] | -0.032 ± 0.046
GEEMDTAEIARQVKEQLIKHNIGQRIFGHYVLGLSQGSVSEILARPKPWNKLTVRGKEPFHKMKQFLSDEQNIGALRSIQGR [L74G] | -0.159 ± 0.026
GEEMDTAEIARQVKEQLIKHNIGQRIFGHYVLGLSQGSVSEILARPKPWNKLTVRGKEPFHKMKQFLSDEQNIPALRSIQGR [L74P] | -0.417 ± 0.049
GEEMDTAEIARQVKEQLIKHNIGQRIFGHYVLGLSQGSVSEILARPKPWNKLTVRGKEPFHKMKQFLSDEQNIWALRSIQGR [L74W] | -0.098 ± 0.032
GEEMDTAEIARQVKEQLIKHNIGQRIFGHYVLGLSQGSVSEILARPKPWNKLTVRGKEPFHKMKQFLSDEQNICALRSIQGR [L74C] | -0.162 ± 0.049
GEEMDTAEIARQVKEQLIKHNIGQRIFGHYVLGLSQGSVSEILARPKPWNKLTVRGKEPFHKMKQFLSDEQNIEALRSIQGR [L74E] | 0.008 ± 0.034
GEEMDTAEIARQVKEQLIKHNIGQRIFGHYVLGLSQGSVSEILARPKPWNKLTVRGKEPFHKMKQFLSDEQNIMALRSIQGR [L74M] | -0.074 ± 0.041
GEEMDTAEIARQVKEQLIKHNIGQRIFGHYVLGLSQGSVSEILARPKPWNKLTVRGKEPFHKMKQFLSDEQNIHALRSIQGR [L74H] | 0.007 ± 0.052
GEEMDTAEIARQVKEQLIKHNIGQRIFGHYVLGLSQGSVSEILARPKPWNKLTVRGKEPFHKMKQFLSDEQNIQALRSIQGR [L74Q] | 0.005 ± 0.042
GEEMDTAEIARQVKEQLIKHNIGQRIFGHYVLGLSQGSVSEILARPKPWNKLTVRGKEPFHKMKQFLSDEQNINALRSIQGR [L74N] | -0.064 ± 0.059
GEEMDTAEIARQVKEQLIKHNIGQRIFGHYVLGLSQGSVSEILARPKPWNKLTVRGKEPFHKMKQFLSDEQNIFALRSIQGR [L74F] | -0.028 ± 0.054
GEEMDTAEIARQVKEQLIKHNIGQRIFGHYVLGLSQGSVSEILARPKPWNKLTVRGKEPFHKMKQFLSDEQNISALRSIQGR [L74S] | -0.083 ± 0.032
GEEMDTAEIARQVKEQLIKHNIGQRIFGHYVLGLSQGSVSEILARPKPWNKLTVRGKEPFHKMKQFLSDEQNIKALRSIQGR [L74K] | 0.029 ± 0.036
GEEMDTAEIARQVKEQLIKHNIGQRIFGHYVLGLSQGSVSEILARPKPWNKLTVRGKEPFHKMKQFLSDEQNIVALRSIQGR [L74V] | 0.017 ± 0.029
GEEMDTAEIARQVKEQLIKHNIGQRIFGHYVLGLSQGSVSEILARPKPWNKLTVRGKEPFHKMKQFLSDEQNIDALRSIQGR [L74D] | -0.019 ± 0.046
GEEMDTAEIARQVKEQLIKHNIGQRIFGHYVLGLSQGSVSEILARPKPWNKLTVRGKEPFHKMKQFLSDEQNIYALRSIQGR [L74Y] | -0.112 ± 0.054
GEEMDTAEIARQVKEQLIKHNIGQRIFGHYVLGLSQGSVSEILARPKPWNKLTVRGKEPFHKMKQFLSDEQNIRALRSIQGR [L74R] | -0.041 ± 0.026
GEEMDTAEIARQVKEQLIKHNIGQRIFGHYVLGLSQGSVSEILARPKPWNKLTVRGKEPFHKMKQFLSDEQNITALRSIQGR [L74T] | -0.087 ± 0.041
GEEMDTAEIARQVKEQLIKHNIGQRIFGHYVLGLSQGSVSEILARPKPWNKLTVRGKEPFHKMKQFLSDEQNIIALRSIQGR [L74I] | 0.032 ± 0.052
GEEMDTAEIARQVKEQLIKHNIGQRIFGHYVLGLSQGSVSEILARPKPWNKLTVRGKEPFHKMKQFLSDEQNIAALRSIQGR [L74A] | -0.039 ± 0.031
